Earlier results as cited in paper PMC8179794.
pKd: −log10 of the molar value. Read-outs that look alike come from different tables or passages of the source. One block for each substance: values may come before it.

Assays:
IL-2Rα (Homo sapiens) = IL-2Rα (Homo sapiens) (UniProt P01589)
IL-2Rβ (Homo sapiens) [1] = molecular target: IL-2Rβ (Homo sapiens) (UniProt P14784)
IL-9R (Homo sapiens) = IL-9R (Homo sapiens) (UniProt Q01113)
IL-15Rα (Homo sapiens) = IL-15Rα (Homo sapiens) (UniProt Q13261)
IL-2Rβ (Homo sapiens) [2] = molecular target: IL-2Rβ (Homo sapiens) (UniProt P14784); remark: listed apart in the source
IL-21R (Homo sapiens) = IL-21R (Homo sapiens) (UniProt Q9HBE5)
Chain of UniProt Q9HBE5 (Q9HBE5 20-232): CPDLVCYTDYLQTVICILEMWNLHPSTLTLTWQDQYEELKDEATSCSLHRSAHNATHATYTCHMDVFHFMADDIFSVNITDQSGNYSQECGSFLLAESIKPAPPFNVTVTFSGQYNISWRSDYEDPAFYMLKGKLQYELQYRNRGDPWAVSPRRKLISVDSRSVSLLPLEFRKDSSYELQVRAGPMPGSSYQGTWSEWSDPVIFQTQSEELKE

Chain of UniProt P14784 (P14784 27-240): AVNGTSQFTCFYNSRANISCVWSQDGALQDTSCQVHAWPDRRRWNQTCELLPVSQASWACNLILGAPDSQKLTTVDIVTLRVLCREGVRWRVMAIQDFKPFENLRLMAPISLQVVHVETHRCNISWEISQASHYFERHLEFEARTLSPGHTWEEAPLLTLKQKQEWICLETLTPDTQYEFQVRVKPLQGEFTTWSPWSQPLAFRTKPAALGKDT
Chain of UniProt Q01113 (Q01113 41-270): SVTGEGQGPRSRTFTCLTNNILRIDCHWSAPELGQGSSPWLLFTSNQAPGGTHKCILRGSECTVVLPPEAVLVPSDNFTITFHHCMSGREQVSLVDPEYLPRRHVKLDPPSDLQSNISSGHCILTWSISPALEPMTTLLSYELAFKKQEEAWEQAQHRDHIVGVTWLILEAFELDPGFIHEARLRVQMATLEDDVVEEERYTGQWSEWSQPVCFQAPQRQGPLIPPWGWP
Chain of UniProt P01589 (P01589 22-240): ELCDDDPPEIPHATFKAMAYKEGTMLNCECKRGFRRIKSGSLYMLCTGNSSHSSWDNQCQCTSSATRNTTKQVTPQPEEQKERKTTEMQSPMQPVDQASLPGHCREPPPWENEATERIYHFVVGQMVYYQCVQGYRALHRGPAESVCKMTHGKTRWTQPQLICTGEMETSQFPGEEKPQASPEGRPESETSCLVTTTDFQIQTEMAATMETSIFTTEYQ
Chain of UniProt Q13261 (Q13261 31-205): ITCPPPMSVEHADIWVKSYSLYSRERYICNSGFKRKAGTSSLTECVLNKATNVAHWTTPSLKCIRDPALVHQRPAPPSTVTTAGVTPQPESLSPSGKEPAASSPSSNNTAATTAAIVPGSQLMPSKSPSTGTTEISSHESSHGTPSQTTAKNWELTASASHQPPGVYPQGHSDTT

pKd (IL-2Rα (Homo sapiens)): 8.00
pKd (IL-2Rβ (Homo sapiens) [1]): 6.84
Substance: IL-2 (from UniProt P60568)

pKd (IL-9R (Homo sapiens)): 10.00
Substance: IL-9 (from UniProt P15248)

pKd (IL-15Rα (Homo sapiens)): 10.19
pKd (IL-2Rβ (Homo sapiens) [2]): 6.36
Substance: IL-15 (from UniProt P40933)

pKd (IL-21R (Homo sapiens)): 10.15
Substance: IL-21 (from UniProt Q9HBE4)
